Measured values as given in patent publication US20050176118A1, “Esterases with lipase activity” (priority 2002, published 2005).

Columns and labels:
[1] = cited from earlier work
[2] = Esterase activity with α-naphthyl acetate; type: biochemical; conditions: substrate α-naphthyl acetate; for Km: read-out: α-NA activity Km
[3] = Permethrin hydrolysis, radiometric partition assay (acid-labelled substrate); type: biochemical; conditions: sequential incubation of trans permethrin with E3WT and E4 from OP resistant aphid homogenates
Description: Expressed enzymes were tested for permethrin hydrolytic activity using a radiometric partition assay for acid-labelled compounds, or a TLC based assay for those labelled in the alcohol moiety (Devonshire and Moores, 1982). […] The power of the analyses was increased by separating permethrin into its cis and trans isomers.
Preparative thin layer chromatography (TLC) on silica was used to separate the isomers into two enantiomer pairs: 1S/1R cis and 1S/1R trans. […] Enzyme preparations could then be assayed for the hydrolysis of each enantiomer pair.
This assay (Devonshire and Moores, 1982) is used for permethrin isomers. It relies on incubating the expressed esterase with radiolabelled substrate and then measuring the radioactive cyclopropanecarboxylate anion in the aqueous phase after extracting the unchanged substrate into organic solvent. Based on previous experience, the best extraction protocol utilises a 2:1 (by volume) mixture of methanol and chloroform. […] Subsequent addition of an excess of chloroform and buffer exceeds the capacity of the methanol to hold the phases together, so that the organic phase can be removed and the product measured in the aqueous phase. […]

[4] = Fluorometric determination of lipase activity; type: biochemical; conditions: 4-MU-palmitate 10^−4M; ± standard error of duplicate assays
Excerpt: A fluorogenic assay was used to measure lipase activity of insect esterases or lipases, and mutants thereof. The fluorogenic substrate provides rapid reproducible methods for measuring enzymatic activity. Fatty acid esters (acylated) of 4-methylumbelliferone fluorophors are used as substrates for the identification of lipase activity. This assay uses the fluorophore 4-methylumbelliferyl palmitate (4-MU-palmitate) (structure provided below) and is a modification of the fluorometric esterase titration assay of Devonshire et al. (2002) and the method of Hamid et al. (1994) used for the rapid characterisation and identification of Mycobacteria. [drawing 4]
4-MU-palmitate is hydrolysed by a lipase to release the fluorescent 4-methylumbelliferone (4-MU), which can be measured by a fluorimeter.
A standard curve for 4-MU is prepared in each plate alongside the titrations. 25 μL 10^−2M dMU stock (19.8 mg/10 ml in 100% ethanol) was diluted with 2.475 ml (3×825 μl) ethanol to give a 10^−4M solution. This 10^−4M solution was used to prepare a standard curve from 0 to 1.0 μM in 0.1M phosphate buffer pH 7.0 (plus 0.05% or 0.5% ultrapure Triton X-100 (TX100) if present in cell extracts). This was done by dispensing 25 μl, 20 μl, 15 μl, 10 μl, 5 μl, 0 μl (plus ethanol to 25 μl) into tubes and adding 2.475 ml phosphate buffer (or phosphate buffer containing TX100 if required), then adding 100 μl per well. This gives 0.2, 0.4, 0.6, 0.8 and 1.0 uM in 0.25% TX100.
The samples were read on a Fluorostar fluorometer (BMG LabTechnologies) alongside the following titration reactions using the basic settings: excitation—355 nm, emission—460 nm, gain—zero, 10 cycles of 180 secs with shaking before each cycle.
For the assay, 20 μl of 5×10^−4 4-MU-palmitate (in 100% acetone) was to the wells that require substrate (II & III as defined in Table 4 below) and air dried. […] Cell extracts should be added immediately before readings start.
Corrected fluorescence (Fcorrected) was calculated by the following equations. […]

[5] = Hydrolysis of Type II pyrethroid, chloroform-methanol extraction assay; type: biochemical; design: key: —: Not substantially different from values obtained using control cell extracts
Description: Since the TLC assay is more protracted than the chloroform-methanol extraction procedure, the latter (as described above for acid-labelled pyrethroids) was adopted to measure the 3-phenoxbenzoate anion produced from these substrates.
For all assays the molar amount of product formed was calculated from the known specific activity of the radiolabelled substrate. […] Assays at concentrations greater than 0.5 μM, which approximates the published aqueous solubility of permethrin, gave erratic results so precluding the measurement of Km and kcat. […] Assay conditions were therefore adjusted to measure the hydrolysis of the more-readily hydrolysed enantiomer in each pair. […] The same considerations about substrate solubility and proportionality of response to its concentration were assumed for all enzymes and substrates.
The specificity constant (ie kcat/Km) can therefore be calculated from the above equation using the initial hydrolysis rate (pmol/min, calculated from the known specific activity of the radiolabelled substrate) and the concentrations of substrate and enzyme in the assay. The diffusion-limited maximum value for a specificity constant is 10^8-10^9 M^−1sec^−1 (Stryer, 1981).

Molecule: CC1(C)C(C=C(Cl)Cl)C1C(=O)OCc1cccc(Oc2ccccc2)c1 (stereo not drawn) [permethrin]
- published solubility in aqueous solution [1]: 0.5 µM

B1: MpE4WT: wild-type Myzus persicae E4 α-carboxylesterase (SEQ ID NO:3) (protein, listed as Myzus persicae)
chain: MKNTCGILLNLFLFIGCFLTCSASNTPKVQVHSGEIAGGFEYTYNGRKIYSFLGIPYASPPVQNNRFKEPQPVQPWLGVWNATVPGSACLGIEFGSGSKIIGQEDCLFLNVYTPKLPQENSAGDLMNVIVHIHGGGYYFGEGILYGPHYLLDNNDFVYVSINYRLGVLGFASTGDGVLTGNNGLKDQVAALKWIQQNIVAFGGDPNSVTITGMSAGASSVHNHLISPMSKGLFNRAIIQSGSAFCHWSTAENVAQKTKYIANLMGCPTNNSVEIVECLRSRPAKAIAKSYLNFMPWRNFPFTPFGPTVEVAGYEKFLPDIPEKLVPHDIPVLISIAQDEGLIFSTFLGLENGFNELNNNWNEHLPHILDYNYTISNENLRFKTAQDIKEFYFGDKPISKETKSNLSKMISDRSFGYGTSKAAQHIAAKNTAPVYFYEFGYSGNYSYVAFFDPKSYSRGSSPTHGDETSYVLKMDGFYVYDNEEDRKMIKTMVNIWATFIKSGVPDTENSEIWLPVSKNLADPFRFTKITQQQTFEAREQSTTGIMNFGVAYH
- α-NA activity kcat [2]: 3 s⁻¹
- Km [2]: 28 µM
- enantiomer preference for trans permethrin [3]: preference for the 1S trans enantiomer
- 4-MU-palmitate activity [4]: 0.1051 ± 0.0033 moles 4MU produced per sec per mole of enzyme

B2: E3WT: wild-type Lucilia cuprina E3 α-carboxylesterase (SEQ ID NO:1), baculovirus expressed (protein, listed as Lucilia cuprina)
chain: MNFNVSLMEKLKWKIKCIENKFLNYRLTTNETVVAETEYGKVKGVKRLTVYDDSYYSFEGIPYAQPPVGELRFKAPQRPTPWDGVRDCCNHKDKSVQVDFITGKVCGSEDCLYLSVYTNNLNPETKRPVLVYIHGGGFIIGENHRDMYGPDYFIKKDVVLINIQYRLGALGFLSLNSEDLNVPGNAGLKDQVMALRWIKNNCANFGGNPDNITVFGESAGAASTHYMMLTEQTRGLFHRGILMSGNAICPWANTQCQHRAFTLAKLAGYKGEDNDKDVLEFLMKAKPQDLIKLEEKVLTLEERTNKVMFPFGPTVEPYQTADCVLPKHPREMVKTAWGNSIPTMMGNTSYEGLFFTSILKQMPMLVKELETCVNFVPSELADAERTAPETLEMGAKIKKAHVTGETPTADNFMDLCSHIYFWFPMHRLLQLRFNHTSGTPVYLYRFDFDSEDLINPYRIMRSGRGVKGVSHADELTYFFWNQLAKRMPKESREYKTIERMTGIWIQFATTGNPYSNEIEGMENVSWDPIKKSDEVYKCLNISDELKMIDVPEMDKIKQWESMFEKHRDLF
- Specificity Constant (kcat/Km) 1R cis αR deltamethrin [5]: —
- Specificity Constant (kcat/Km) 1R cis αS deltamethrin [5]: —
- Specificity Constant (kcat/Km) 1S cis αR deltamethrin [5]: —^1
- Specificity Constant (kcat/Km) 1S cis αS deltamethrin [5]: —
- α-NA activity kcat [2]: 248 s⁻¹
- Km [2]: 71 µM
- enantiomer preference for trans permethrin [3]: preference for the 1S trans enantiomer
- 4-MU-palmitate activity [4]: 0.0298 ± 0.0006^1 moles 4MU produced per sec per mole of enzyme

B3: EST23WT: wild-type Drosophila melanogaster EST23 α-carboxylesterase (SEQ ID NO:2) (protein)
chain: MNKNLGFVERLRGRLKTIEHKVQQYRQSTNETVVADTEYGQVRGIKRLSLYDVPYFSFEGIPYAQPPVGELRFKAPQRPIPWEGVRDCSQPKDKAVQVQFVFDKVEGSEDCLYLNVYTNNVKPDKARPVMVWIHGGGFIIGEANREWYGPDYFMKEDVVLVTIQYRLGALGFMSLKSPELNVPGNAGLKDQVLALKWIKNNCASFGGDPNCITVFGESAGGASTHYMMLTDQTQGLFHRGILQSGSAICPWAYNGDITHNPYRIAKLVGYKGEDNDKDVLEFLQNVKAKDLIRVEENVLTLEERMNKIMFRFGPSLEPFSTPECVISKPPKEMMKTAWSNSIPMFIGNTSYEGLLWVPEVKLMPQVLQQLDAGTPFIPKELLATEPSKEKLDSWSAQIRDVHRTGSESTPDNYMDLCSIYYFVFPALRVVHSRHAYAAGAPVYFYRYDFDSEELIFPYRIMRMGRGVKGVSHADDLSYQFSSLLARRLPKESREYRNIERTVGIWTQFAATGNPYSEKINGMDTLTIDPVRKSDEVIKCLNISDDLKFIDLPEWPKLKVWESLYDDNKDLLF
modifications: Drosophila melanogaster
- Specificity Constant (kcat/Km) 1R cis αR deltamethrin [5]: —
- Specificity Constant (kcat/Km) 1R cis αS deltamethrin [5]: —
- α-NA activity kcat [2]: 276 s⁻¹
- Km [2]: 82 µM
- 4-MU-palmitate activity [4]: 0.0677 ± 0.0032 moles 4MU produced per sec per mole of enzyme
